Data taken from paper PMC4359245 (Oncotarget, 2014).

Legend:
proteinase K [1] = biological target: T1, proteinase K (Parengyodontium album, UniProt P06873); assay: Proteinase K digestion of synthetic Aβ in lysis buffer, western blot; type: in vitro ADME; details: 1 h, 37°C, western blot 6E10; for Immunoreactivity with 6E10 after PK digestion (PK sensitivity): peptide in 1X PBS diluted in 1X lysis buffer, no DMSO, smallest amount of PK 5 μg/ml (range 0-50 μg/ml); for PK sensitivity of peptides dissolved in DMSO: 1X lysis buffer, PK 0-50 μg/ml
T1 sequence (P06873 106-384): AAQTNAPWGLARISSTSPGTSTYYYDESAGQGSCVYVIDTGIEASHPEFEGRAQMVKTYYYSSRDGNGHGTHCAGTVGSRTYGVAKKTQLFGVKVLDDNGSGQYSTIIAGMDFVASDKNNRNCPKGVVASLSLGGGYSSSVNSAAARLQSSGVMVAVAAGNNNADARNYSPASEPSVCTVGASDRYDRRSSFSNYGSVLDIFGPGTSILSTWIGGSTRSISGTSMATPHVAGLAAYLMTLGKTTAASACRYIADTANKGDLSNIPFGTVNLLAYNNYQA

[2] = type: physicochemical; details: spiked into HuPrP-Tg mouse brain homogenate, RT 12 h, 10-60% sucrose step gradient, 200,000 x g, 1 h, 4°C, western blot 6E10; for Sucrose gradient fractions holding the majority of the peptide: 12 fractions from top
proteinase K [3] = biological target: T1, proteinase K; assay: Proteinase K digestion of synthetic Aβ spiked into non-AD brain homogenate; details: spiked into non-AD brain homogenate with no detectable endogenous Aβ; P2 fraction; PK 0-50 μg/ml, 1 h, 37°C; western blot 6E10
[4] = Negative-stain electron microscopy of synthetic Aβ with and without PK digestion; type: physicochemical; details: for Fibrils seen by electron microscopy after PK digestion: PK-treated peptide preparations, negative stain EM; for Fibril formation and morphology by electron microscopy: peptide in PBS, without PK, negative stain 2% uranylacetate, 80 kV
Source text: To further rule out this possibility, PK-treated peptides were also examined by EM.
The excess buffered-protein solution was removed, and negatively stained with 2% uranylacetate. Grids were then washed by touching a buffer and the excess buffer blotted off immediately using a Whatman filter paper. Grids were then air-dried and kept at room temperature. Negatively stained specimens were observed by a JEOL 1200EX electron microscope (JEOL, Tokyo, Japan) with 80 kV of electron acceleration voltage.

[5] = pH 7.5

Substance	Immunoreactivity with 6E10 after PK digestion (PK sensitivity) (proteinase K [1])	PK sensitivity of peptides dissolved in DMSO (proteinase K [1])	Sucrose gradient fractions holding the majority of the peptide [2]	Large aggregates in bottom fractions 10-12 of the sucrose gradient [2]	PK resistance of spiked peptide (PK concentration resisted) (proteinase K [3]) [µg/mL]	Fibrils seen by electron microscopy after PK digestion [4]	Fibril formation and morphology by electron microscopy [4]	Detergent solubility: fraction in which the peptide is detected (S2 supernatant = soluble, P2 pellet = insoluble) [5]
Aβ40: synthetic amyloid β peptide Aβ40 purchased from Sigma	No immunoreactivity	PK-sensitive	between fractions 1 and 3	detected in significant amounts in fractions 10 to 12	≥ 50	no fibrils or significant structures could be observed	relatively scarce but much longer	only in the S2 but not in the P2
Aβ42: synthetic amyloid β peptide Aβ42 purchased from Sigma	No immunoreactivity	PK-sensitive	between fractions 1 and 3	smaller amounts	≥ 50	no fibrils or significant structures could be observed	numerous but short fibrils	
